Data on seven molecules can be found in patent US20210054097A1.

Holding throughout (assay): peptide ELISA
The target of test [1] is T1, FX activation peptide 12-mer … (human).
T1 sequence (peptide, C-terminally conjugated to biotin): PFDLLDFNQTQP

The target in test [2] is T2, FX activation peptide 12-mer … (human).
T2 sequence (peptide, C-terminally conjugated to biotin): LDPTENPFDLLD
This is another data set of the same source.

For test [3], the target named is T3, FX activation peptide 12-mer … (human).
T3 sequence (peptide, C-terminally conjugated to biotin): FDLLDFNQTQPE
The source holds these as a separate data set.

In test [4] the target is T4, FX activation peptide 12-mer … (human).
T4 sequence (peptide, C-terminally conjugated to biotin): PTENPFDLLDFN
This is another data set of the same source.

For test [5], the target named is T5, FX activation peptide 12-mer … (human).
T5 sequence (peptide, C-terminally conjugated to biotin): DPTENPFDLLDF
The source holds these as a separate data set.

For test [6], the target named is T6, FX activation peptide 12-mer … (human).
T6 sequence (peptide, C-terminally conjugated to biotin): SVAQATSSSGEA
This is another data set of the same source.

Test [7] has as its target T7, FX activation peptide 12-mer … (human).
T7 sequence (peptide, C-terminally conjugated to biotin): PDSITWKPYDAA
The source holds these as a separate data set.

Test [8] has as its target T8, FX activation peptide 12-mer … (human).
T8 sequence (peptide, C-terminally conjugated to biotin): SITWKPYDAADL
This is another data set of the same source.

Test [9] deals with T9, FX activation peptide 12-mer … (human).
T9 sequence (peptide, C-terminally conjugated to biotin): FNQTQPERGDNN
The source holds these as a separate data set.

Test [10] addresses T10, FX activation peptide 12-mer … (human).
T10 sequence (peptide, C-terminally conjugated to biotin): SSGEAPDSITWK
The source holds these as a separate data set.

Test [11] addresses T11, FX activation peptide 12-mer … (human).
T11 sequence (peptide, C-terminally conjugated to biotin): SGEAPDSITWKP
The source holds these as a separate data set.

Test [12] concerns the target T12, FX activation peptide 12-mer … (human).
T12 sequence (peptide, C-terminally conjugated to biotin): ENPFDLLDFNQT
This is another data set of the same source.

The target in test [13] is T13, FX activation peptide 12-mer … (human).
T13 sequence (peptide, C-terminally conjugated to biotin): EAPDSITWKPYD
This is another data set of the same source.

For test [14], the target named is T14, FX activation peptide 12-mer … (human).
T14 sequence (peptide, C-terminally conjugated to biotin): TWKPYDAADLDP
The source holds these as a separate data set.

Test [15] addresses T15, FX activation peptide 12-mer … (human).
T15 sequence (peptide, C-terminally conjugated to biotin): DSITWKPYDAAD
The source holds these as a separate data set.

Test [16] has as its target T16, FX activation peptide 12-mer … (human).
T16 sequence (peptide, C-terminally conjugated to biotin): TSSSGEAPDSIT
This is another data set of the same source.

The target of test [17] is T17, FX activation peptide 12-mer … (human).
T17 sequence (peptide, C-terminally conjugated to biotin): DAADLDPTENPF
This is another data set of the same source.

The target of test [18] is T18, FX activation peptide 12-mer … (human).
T18 sequence (peptide, C-terminally conjugated to biotin): NPFDLLDFNQTQ
This is another data set of the same source.

In test [19] the target is T19, FX activation peptide 12-mer … (human).
T19 sequence (peptide, C-terminally conjugated to biotin): APDSITWKPYDA
This is another data set of the same source.

For test [20], the target named is T20, FX activation peptide 12-mer … (human).
T20 sequence (peptide, C-terminally conjugated to biotin): ATSSSGEAPDSI
This is another data set of the same source.

For test [21], the target named is T21, FX activation peptide 12-mer … (human).
T21 sequence (peptide, C-terminally conjugated to biotin): LLDFNQTQPERG
This is another data set of the same source.

Test [22] concerns the target T22, FX activation peptide 12-mer … (human).
T22 sequence (peptide, C-terminally conjugated to biotin): DFNQTQPERGDN
The source holds these as a separate data set.

Test [23] concerns the target T23, FX activation peptide 12-mer … (human).
T23 sequence (peptide, C-terminally conjugated to biotin): PYDAADLDPTEN
The source holds these as a separate data set.

For test [24], the target named is T24, FX activation peptide 12-mer … (human).
T24 sequence (peptide, C-terminally conjugated to biotin): YDAADLDPTENP
The source holds these as a separate data set.

The target in test [25] is T25, FX activation peptide 12-mer … (human).
T25 sequence (peptide, C-terminally conjugated to biotin): TENPFDLLDFNQ
The source holds these as a separate data set.

Test [26] deals with T26, FX activation peptide 12-mer … (human).
T26 sequence (peptide, C-terminally conjugated to biotin): DLLDFNQTQPER
This is another data set of the same source.

Test [27] has as its target T27, FX activation peptide 12-mer … (human).
T27 sequence (peptide, C-terminally conjugated to biotin): DLDPTENPFDLL
The source holds these as a separate data set.

The target of test [28] is T28, FX activation peptide 12-mer … (human).
T28 sequence (peptide, C-terminally conjugated to biotin): VAQATSSSGEAP
The source holds these as a separate data set.

Test [29] has as its target T29, FX activation peptide 12-mer … (human).
T29 sequence (peptide, C-terminally conjugated to biotin): NQTQPERGDNNL
The source holds these as a separate data set.

The target in test [30] is T30, FX activation peptide 12-mer … (human).
T30 sequence (peptide, C-terminally conjugated to biotin): ITWKPYDAADLD
This is another data set of the same source.

Test [31] addresses T31, FX activation peptide 12-mer … (human).
T31 sequence (peptide, C-terminally conjugated to biotin): GEAPDSITWKPY
The source holds these as a separate data set.

B1: Nb 729A04 (VHH, not shown: small tags and cut ends)
VHH: EVQLVESGGGVVQPGGSLRLSCAASGFTFSDYAMSWVRQAPGKGLEWVSGITSGGGRTYYADSVKGRFTISRDNSKNTLYLQMNSLRPEDTALYYCAAVRTLGLRGSYDYWGQGTLVTVSS
Regarding B1, the results for the ELISA signal relative to background in test [1], in [2] and in [3] were 1.41, 1.91 and 1.58, respectively.

B2: Nb 730C03 (VHH, not shown: small tags and cut ends)
VHH: EVQLVESGGGVVQPGGSLRLSCVASGFTFSDYAMSWVRQAPGKGLEWVSGITSGSGRTYYADSVKGRFTISRDNSKNTVYLQMNSLRPEDTALYYCAAAILRGYRKTYDYWGQGTLVTVSS
As for B2, the figures for the ELISA signal relative to background in test [4] and in [5] were 1.62 and 1.68, respectively.

B3: Nb 729C08 (VHH, not shown: small tags and cut ends)
VHH: EVQLVESGGGVVQPGGSLRLSCAASGFTFSDYAMSWVRQAPGKGLEWVSGITGGGRTYYADSVKGRFTISRDNSKNTLYLQMNSLRPEDTALYYCAAAILTRTRRTYDYWGQGTLVTVSS
Take B3: the ELISA signal relative to background in test [5] is 1.95; in test [2], 1.58.

B4: Nb 721E08 (VHH, not shown: small tags and cut ends)
VHH: EVQLVESGGGVVQPGGSLRLSCAASGRTFSTYSMGWFRQAPGKEREFVAAITRRGSRTYYADSVKGRFTISRDNSKNTVYLQMNSLRPEDTALYYCAADRRPADSYLDYWGQGTLVTVSS
Regarding B4, the ELISA signal relative to background in [6] turned out to be 2.25; in [7] it was 2.4; in test [8], 2.28; in test [9] it was 2.16; in test [10], 2.01; in test [11] it was 2.15. In addition, the ELISA signal relative to background in test [12] came out at 2.88; in test [4], 2.35; in test [13], 2.35; in test [14], 2.26; in [15], 2.18; in [16] it was 2.2. For the same molecule, the ELISA signal relative to background in test [17] was 2.3; in test [18], 2.28; in test [19], 2.29; in test [20], 2.27; in [21], 2.3; in test [22], 2.25. Moreover, the ELISA signal relative to background in test [23] was determined as 2.05; in [24] it was 2.21; in test [25] it was 2.54; in [1], 2.5; in [5], 2.27; in test [2], 2.29. Besides, the ELISA signal relative to background in test [26] worked out at 2.45; in [27], 2.48; in [28], 2.13; in test [29], 2.02; in [30], 2.08; in test [3], 3.01. For the same molecule, in test [31], the ELISA signal relative to background was 2.26.

B5: Nb 701D07 (VHH, not shown: small tags and cut ends)
VHH: EVQLVESGGGVVQPGGSLRLSCAASGGTLSRYAMGWFRQAPGKEREFVAAITRRGSRTYYADSVKGRFTISRDNSKNTVYLQMNSLRPEDTALYYCAADLAPGDYALDYWGQGTLVTVSS
With B5, the ELISA signal relative to background in [12] was found to be 1.27; in test [4], 1.29; in test [18] it was 0.96; in test [25], 1.44; in [1] it was 1.13; in test [5] it was 1.39.

B6: Nb 701C06 (VHH, not shown: small tags and cut ends)
VHH: EVQLVESGGGVVQPGGSLRLSCAASGRTFSTYAMGWFRQAPGKEREFVAAISRRGGRTYYADSVKGRFTISRDNSKNTVYLQMNSLRPEDTALYYCAADATARDGLLDYWGQGTLVTVSS
For B6, the ELISA signal relative to background came out at 1.56 in test [12]; 1.61 in [4]; 1.29 in test [18]; 1.74 in test [25]; 1.5 in [1]; 1.51 in [5]. Further, in test [3], the ELISA signal relative to background was found to be 1.41.

B7: Nb 702C12 (VHH, not shown: small tags and cut ends)
VHH: EVQLVESGGGVVQPGGSLRLSCVASGRTFSRYAMGWFRQAPGKEREFVAAISRRGGSTNYADSVKGRFTISRDNSKNTVYLQMNSLRPEDTALYYCAADYSSGDGYLDYWGQGTLVTVSS
B7 registered an ELISA signal relative to background in [21] of 1.88.
